{"source": "patent US8822407B2", "about": "“Preparation of conjugates comprising adenine derivatives and allergenic proteins and their use for specific immunotherapy of allengenic diseases” (Universita' Degli Studi di Firenze, priority 2010, dated 2014)", "format_in_all_cases": "cell-based, human", "key": {"[1]": {"system": "purified B cells", "assay": "B cell activation (tritiated thymidine incorporation)", "settings": "for Stimulation index (mean ± SE): B cell proliferation", "procedure": "Circulating mononuclear cells (MNC) are isolated by Ficoll-Hypaque density gradient from buffy coats of healthy donors (Servizio Immunotrasfusionale e terapie cellulari, Azienda Ospedaliero Universitaria Pediatrica A. Meyer, Firenze). 200×10^6 MNC are then separated using the commercial CD19 isolation kit (Miltenyi) by the addition of 400 μl iron microbead-bound anti-CD19 monoclonal antibody followed by magnetic separation on LS column. 20×10^6 B cells are isolated by positive selection and are extensively washed by the use of calcium- and magnesium-free PBS and cultured in triplicates at the concentration of 1×10^6/ml/well in complete medium plus 10% foetal calf serum in 96-U plates. […] Plates are incubated in humidified atmosphere at 37° C. for 72 hrs and at the end 0.5 μCi tritiated thymidine is added to each well for further 16 hrs. The incorporated radioactivity is measured as already described in step (f) of Example 4."}, "[2]": {"system": "NF-κB p50 subunit in purified CD14+ cells", "assay": "NF-κB activation: nuclear p50 in purified CD14+ cells", "settings": "2 hrs, allergens and conjugates 10 μg/ml, R-848 2 μg/ml", "procedure": "The tubes are then incubated for 2 hrs in 5% CO2 humidified atmosphere at 37° C. and then washed with 10 ml PBS, centrifuged at 1500 rpm repeating the treatment thrice and the cellular pellet finally dried by the use of a micropipette and stored at −80° C. up to the assay. […] Two different protein amounts (0.5 and 2 μg) were incubated in 96w plates coated by the immobilized oligonucleotide containing the activated NF-κB consensus site (5′-[…]-3′), followed by the incubation with an antibody recognizing an epitope of the NF-κB p50 subunit. An HRP-conjugated secondary antibody was added to single wells and the colorimetric read-out was quantified by spectrophotometry. Values are reported as Optical Density. […] For the specificity of the assay, a wild-type consensus oligonucleotide was used as a competitor for NF-κB binding."}, "[3]": {"system": "allergen-specific T cell lines", "assay": "Functional phenotype of allergen-specific T cell lines", "settings": "SA-26E 0.085 μg/ml, alone or mixed with nDer p2 10 μg/ml", "procedure": "Mononuclear cells from 10 atopic donors with sensitization towards Dermatophagoides pteronyssinus have been isolated by density gradient and 1×10^6 cells cultured in 2 ml complete medium plus 5% autologous serum in the presence of DP or nDer p2 allergens or their respective conjugates (DP-conj or nDer p2-conj) (all at 10 μg/ml) in 24 flat-bottomed plates (Costar). […] After 6 d incubation and addition of rIL-2 (Proleukin) (25 UI/ml), T cell blasts are further expanded by the addition of medium, fresh 5% autologous serum and 25 UI/ml rIL-2 every three days. After 15 d culture, T cell blasts from single cultures are collected, washed with sterile PBS, counted and used to assess allergen specificity, phenotype and function.\nTo assess allergen-specificity, 1×10^5 T cell blasts are cultured in 96 U-bottomed plates in 0.2 ml final volume in medium plus 5% autologous serum, 1×10^5 autologous irradiated (9000 R) mononuclear cells as APCs, DP or nDer p2 (10 μg/ml) and, after 3 d incubation, tritiated thymidine (3HTdR) (Amersham) is added. After further 16 hr incubation, single cultures are transferred on paper filters through the use of an Harvester apparatus (Tomtec) and radioactivity measured in a β-counter. […]"}, "[4]": {"system": "allergen-specific T cell lines", "assay": "Functional phenotype of allergen-specific cells with different ratios between allergen and modified adenine", "settings": "T cell lines from atopic donors, Example 5 step d"}}}
{"molecule": "CCOCc1nc2c(N)nc3ccccc3c2n1CC(C)(C)O", "note": "[Conj R-848, reference compound]", "values": [{"measurement": "proliferation of purified B lymphocytes (in words)", "setting": "[1]; thymidine incorporation", "value": "high levels of incorporation of radioactive thymidine"}]}
{"molecule": "Nc1nc(SCCCC(=O)ON2C(=O)CCC2=O)nc2c1nc(O)n2Cc1ccccc1", "note": "[SA-26E, 4-(6-Amino-9-benzyl-8-hydroxy-9H-purin-2-ylsulfanyl)-butyric acid 2,5-dioxo-pyrrolidin-1-yl ester]", "values": [{"measurement": "p50 nuclear expression (NF-κB activation)", "setting": "[2]", "value": "completely inactive"}, {"measurement": "modification of the cellular phenotype of allergen-specific T cells (TH2 towards TH1/TH0)", "setting": "[3]", "value": "inactive"}]}
{"molecule": "nDer p2: purified natural allergen Der p2, major allergen from the house dust mite Dermatophagoides pteronyssinus (protein, UniProt P49278 18-146, looked up, natural purified, purified natural allergen Der p2, major allergen from the house dust mite Dermatophagoides pteronyssinus) Mite group 2 allergen Der p 2: DQVDVKDCANHEIKKVLVPGCHGSEPCIIHRGKPFQLEAVFEANQNTKTAKIEIKASIDGLEVDVPGIDPNACHYMKCPLVKGQQYDIKYTWNVPKIAPKSENVVVTVKVMGDDGVLACAIATHAKIRD", "values": [{"measurement": "% of cells expressing IFN-gamma+", "setting": "[4]", "value": 5, "unit": "%"}, {"measurement": "% of cells expressing IL-4+", "setting": "[4]", "value": 55.5, "unit": "%"}, {"measurement": "Stimulation index (mean ± SE)", "setting": "[1]; concentration 0.5 μg/ml", "value": "1.6 ± 0.4"}, {"measurement": "Stimulation index (mean ± SE)", "setting": "[1]; concentration 2.5 μg/ml", "value": "1.7 ± 0.2"}, {"measurement": "Stimulation index (mean ± SE)", "setting": "[1]; concentration 10 μg/ml", "value": "1.7 ± 0.1"}, {"measurement": "p50 nuclear expression (NF-κB activation)", "setting": "[2]", "value": "inactive"}]}
